Measurements taken from patent US20240287139.
Positions count from the first letter of the chain named.

B1: MtbGyrase with MtbGyrAP353L (protein)
chain 1: TDTTLPPDDSLDRIEPVDIEQEMQRSYIDYAMSVIVGRALPEVRDGLKPVHRRVLYAMFDSGFRPDRSHAKSARSVAETMGNYHPHGDASIYDSLVRMAQPWSLRYPLVDGQGNFGSPGNDPPAAMRYTEARLTPLAMEMLREIDEETVDFIPNYDGRVQEPTVLPSRFPNLLANGSGGIAVGMATNIPPHNLRELADAVFWALENHDADEEETLAAVMGRVKGPDFPTAGLIVGSQGTADAYKTGRGSIRMRGVVEVEEDSRGRTSLVITELPYQVNHDNFITSIAEQVRDGKLAGISNIEDQSSDRVGLRIVIEIKRDAVAKVVINNLYKHTQLQTSFGANMLAIVDGVLRTLRLDQLIRYYVDHQLDVIVRRTTYRLRKANERAHILRGLVKALDALDEVIALIRASETVDIARAGLIELLDIDEIQAQAILDMQLRRLAALERQRIIDDLAKIEAEIADLEDILAKPERQRGIVRDELAEIVDRHGDDRRTRIIAADGDVSDEDLIAREDVVVTITETGYAKRTKTDLYRSQKRGGKGVQGAGLKQDDIVAHFFVCSTHDLILFFTTQGRVYRAKAYDLPEASRTARGQHVANLLAFQPEERIAQVIQIRGYTDAPYLVLATRNGLVKKSKLTDFDSNRSGGIVAVNLRDNDELVGAVLCSAGDDLLLVSANGQSIRFSATDEALRPMGRATSGVQGMRFNIDDRLLSLNVVREGTYLLVATSGGYAKRTAIEEYPVQGRGGKGVLTVMYDRRRGRLVGALIVDDDSELYAVTSGGGVIRTAARQVRKAGRQTKGVRLMNLGEGDTLLAIARNAEESGDDNAVDANGADQTGN
chain 2: MAAQKKKAQDEYGAASITILEGLEAVRKRPGMYIGSTGERGLHHLIWEVVDNAVDEAMAGYATTVNVVLLEDGGVEVADDGRGIPVATHASGIPTVDVVMTQLHAGGKFDSDAYAISGGLHGVGVSVVNALSTRLEVEIKRDGYEWSQVYEKSEPLGLKQGAPTKKTGSTVRFWADPAVFETTEYDFETVARRLQEMAFLNKGLTINLTDERVTQDEVVDEVVSDVAEAPKSASERAAESTAPHKVKSRTFHYPGGLVDFVKHINRTKNAIHSSIVDFSGKGTGHEVEIAMQWNAGYSESVHTFANTINTHEGGTHEEGFRSALTSVVNKYAKDRKLLKDKDPNLTGDDIREGLAAVISVKVSEPQFEGQTKTKLGNTEVKSFVQKVCNEQLTHWFEANPTDAKVVVNKAVSSAQARIAARKARELVRRKSATDIGGLPGKLADCRSTDPRKSELYVVEGDSAGGSAKSGRDSMFQAILPLRGKIINVEKARIDRVLKNTEVQAIITALGTGIHDEFDIGKLRYHKIVLMADADVDGQHISTLLLTLLFRFMRPLIENGHVFLAQPPLYKLKWQRSDPEFAYSDRERDGLLEAGLKAGKKINKEDGIQRYKGLGEMDAKELWETTMDPSVRVLRQVTLDDAAAADELFSILMGEDVDARRSFITRNAKDVRFLDV
B2: MtbGyrase with MtbGyrAM33A (protein)
chain 1: B1 chain 1 with M32A, L352P
chain 2: B1 chain 2
B3: MtbGyrase with MtbGyrAA32V (protein)
chain 1: B1 chain 1 with A31V, L352P
chain 2: B1 chain 2
B4: MtbGyrase with MtbGyrAI36F (protein)
chain 1: B1 chain 1 with I35F, L352P
chain 2: B1 chain 2

These proteins were tested against the compound of Formula IV.

| Protein | compound-induced DNA cleavage compared to wildtype MtbGyrase |
| --- | --- |
| B1 | reduced cleavage (5 to 100-fold) |
| B2 | reduced cleavage (5 to 100-fold) |
| B3 | reduced cleavage (5 to 100-fold) |
| B4 | reduced cleavage (5 to 100-fold) |
